From the supplement of paper PMC9170038 come the findings set out here.

The data set concerns MS2 coat protein. Nature of the data set: apparent KD of MS2 coat protein; designed switch direction (-1 OFF switch, 1 ON switch): -1; higher = weaker reporter binding. The method in brief: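 On Illumina chips, designed RNA switches with common flanks were made by stalled E. coli RNA polymerase. Titrations with SNAP-549-labelled MS2 coat protein, doubling from 0.7 or 1.5 nM to 3 µM, were done with no input, with 200 uM small-molecule ligand, or with an oligonucleotide input. Apparent KD is the median per design over clusters, from curve fits of normalised cluster fluorescence.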

[1] abbreviates: input ligand: microRNA oligo, concentration not stated.
Where [2] appears, read: Eterna round: R95, input ligand: microRNA oligo, concentration not stated.

With “GCGCGCGUUGUGAGGAUAUCGGGCCCGAAAGGGCCCGAGAAGGCACAUGAGGAUCACCCAUGUAAGGUGUGUGU [-35.5, -34.8 kcal, A 23%, 0-6bis] (Eterna round: R97, puzzle: Brourd's mod of Exclusion 4)”, the “apparent KD of MS2 coat protein” value reads like this: (input ligand: FMN 200 uM) 619 nM; (input ligand: none) 613 nM.
On to “GCGCGGCGUGUAGGAUAUGCGCGCGGGUCGCGCGCAGAAGGACAUGAGGAUCACCCAUGUGGCGCGCUUGGCGCGCCGCCGCGC [-48, -45 kcal and 14% A] (Eterna round: R96, puzzle: Exclusion NG 1)”, for which the “apparent KD of MS2 coat protein” value was 16.6 nM (input ligand: FMN 200 uM), 9.64 nM under setting [1] and 12.9 nM (input ligand: none).
Take “GCGGACUCGAUCGUGAGAUCGGAGACAUGAGGAUCACCCAUGUAGGAUAUCGAUUGCUUUGCAGUCGAGAAGGGCGUGGUCCGC [JL denovo 17] (Eterna round: R96, puzzle: Exclusion NG 3)”: the “apparent KD of MS2 coat protein” value is, setting by setting: (input ligand: FMN 200 uM) 152 nM; under setting [1], 98.1 nM; (input ligand: none) 157 nM.
With “GCGGAGUCAGGAUAUUGAAUUUAACGUACCAAUAAGGUACGCGAGAAGGGACAUGAGGAUCACCCAUGUACCGC [Mat - Exclusion 4 - Eli Mod - D35] (Eterna round: R97, puzzle: Exclusion 4)”, the “apparent KD of MS2 coat protein” value runs as follows: (input ligand: FMN 200 uM) 16.5 nM; (input ligand: none) 17.3 nM.
As to “GCGGAGUCAGGAUAUUGAAUUUAACGUACCAAUUAGGUACGCGAGAAGGGACAUGAGGAUCACCCAUGUACCGC [Eli x4 4.03] (Eterna round: R97, puzzle: Exclusion 4)”, the “apparent KD of MS2 coat protein” value stood at 11.4 nM (input ligand: FMN 200 uM) and 15.9 nM (input ligand: none).
In the case of “GCGGCGUAUGUAGGAUAUCGGUCAGUUUCUGAUCGAGAAGGACAUGAGGAUCACCCAUGUAAAUUACCGACUUUGUCGGGCCGC [JL ENG1 3.66] (Eterna round: R96, puzzle: Exclusion NG 1)”, the “apparent KD of MS2 coat protein” value was found to be 20.4 nM (input ligand: FMN 200 uM), 13.5 nM under setting [1] and 17.7 nM (input ligand: none).
The corresponding values for “GCGUAGUAUGUAGGAUAUCGGUCAGUUUCUGAUCGAGAAGGACAUGAGGAUCACCCAUGUAAAACGACCGCUUUGUGGUUACGC [JL ENG1 3.58] (Eterna round: R96, puzzle: Exclusion NG 1)” are 42.7 nM, 15.9 nM and 19.2 nM.
As for “GCUAAACAUGUAGGAUAUGCGUGGCGAAGCUAUGCAGAAGGACAUGAGGAUCACCCAUGUUUUAGCGUCUGCGUACAGAUGCGU [JL ENG1 1.43] (Eterna round: R96, puzzle: Exclusion NG 1)”, the “apparent KD of MS2 coat protein” value by setting is: (input ligand: FMN 200 uM) 318 nM; under setting [1], 28 nM; (input ligand: none) 31.6 nM.
Regarding “GCUAGAGCAGGAUAUCUAGAUCCUCACAUGAGGAUCACCCAUGUAGUCGAAAGACUAAGAAGAGAAGGGCUCUAGC [Omei Ex5 E17] (Eterna round: R97, puzzle: Exclusion 5)”, the “apparent KD of MS2 coat protein” value runs as follows: (input ligand: FMN 200 uM) 133 nM; (input ligand: none) 8.81 nM.
Turning to “GCUCCUCCUGUUAGGAUAUGCUUCGGGCUUCCGCAGCAGAAGGAACAUGAGGAUCACCCAUGUCAAAUAAAAUC [Brourd's mod of Ex.4 - Mod Inxebexe (Scored 85 R3.2)] (Eterna round: R97, puzzle: Brourd's mod of Exclusion 4)”, the “apparent KD of MS2 coat protein” value reads like this: (input ligand: FMN 200 uM) 223 nM; (input ligand: none) 76.2 nM.
Consider “GCUCGCGGGCAAGGAUAUCCUACGCUGUUCUGGCCCGUGUCUGUUACAUGAGGAUCACCCAUGUGGGAGAAGGUGCACCAGGGC [Design 46] (Eterna round: R96, puzzle: Exclusion NG 2)”, for which the “apparent KD of MS2 coat protein” value runs as follows: (input ligand: FMN 200 uM) 19.7 nM; under setting [1], 11.9 nM; (input ligand: none) 19.1 nM.
In the case of “GCUGCUAGAGGAUAUACAUGAGGAUCACCCAUGUGAAAUUAUAGUGAGGAAAUGAAAAGUAGAAGGCUAGUAGA [Mod of Mat 16 - Jieux - Exclusion 3] (Eterna round: R97, puzzle: Exclusion 3)”, the “apparent KD of MS2 coat protein” value came out at 381 nM (input ligand: FMN 200 uM) and 36.2 nM (input ligand: none).
Consider “GCUGGGUCAGGAUAUACAAGAUCGAAAGAUCAAAGAUUCGUACAUGAGGAUCACCCAUGUAGAAGGGACUGGGC [ChP 11-04-2015 #8] (puzzle: Exclusion 2)”, for which the “apparent KD of MS2 coat protein” value under setting [2] turned out to be 17.2 nM.
Take “GCUGGGUCAGGAUAUACAAGAUCGAAAGAUCUGUGAAACGAACAUGAGGAUCACCCAUGUAGAAGGGACUGGGC [ChP 11-04-2015 #9] (puzzle: Exclusion 2)”: under setting [2], the “apparent KD of MS2 coat protein” value is 16.6 nM.
Turning to “GCUGGUCAAGGAUAUACAUGAGGAUCACCCAUGUAGAUCAACCAGCGAUAGCUGGAAUGUAGAAGGUGACCAGC [E3/5-C1] (Eterna round: R97, puzzle: Exclusion 3)”, the “apparent KD of MS2 coat protein” value runs as follows: (input ligand: FMN 200 uM) 48.4 nM; (input ligand: none) 15.5 nM.
Regarding “GCUGGUCGAGGAUAUACAUGAGGAUCACCCAUGUUGAUCAACUGCCGAUAGGCAGAAUGUAGAAGGCGACCAGC [E3/7-A1] (Eterna round: R97, puzzle: Exclusion 3)”, the “apparent KD of MS2 coat protein” value (input ligand: FMN 200 uM) is 137 nM and the “apparent KD of MS2 coat protein” value (input ligand: none) is 1110 nM.
Consider “GCUGGUCGAGGAUAUAUAUGACGUGCUUCGGCACGAAGGUCACAUGAGGAUCACCCAUGUAGAAGGUGACCAGC [E2/9-B1] (Eterna round: R97, puzzle: Exclusion 2)”, for which the “apparent KD of MS2 coat protein” value (input ligand: FMN 200 uM) came to 110 nM and the “apparent KD of MS2 coat protein” value (input ligand: none) is 42 nM.
On the same counts, the results for “GCUGUGAAUCAGGAUAUGCGGAUAAAGAGUGCCGCAGAAGGGAUAACAUGAGGAUCACCCAUGUUCCUGCAUGA [Eternabot (L2) Solution 99] (Eterna round: R97, puzzle: Exclusion 6)” are 26.5 nM and 20.9 nM.
Turning to “GGAAAGUGAGGAUAUGGUAAAGUAAGUAUGUAGUAAGUAAUCCAGAAGGCACAUGAGGAUCACCCAUGUAAAUG [Mat - Exclusion 4 - D100] (puzzle: Exclusion 4)”, the “apparent KD of MS2 coat protein” value under setting [2] was found to be 27.2 nM.
“GGAAGGCGAGGAUAUACAAUAAAGAAAGAGAAAGACGUGAGACAUGAGGAUCACCCAUGUAGAAGGUGCGGAGA [AK-MS2ROC-r4-exclusion2-13] (Eterna round: R97, puzzle: Exclusion 2)”: the “apparent KD of MS2 coat protein” value reads like this: (input ligand: FMN 200 uM) 37.3 nM; (input ligand: none) 34.3 nM.
“GGACCAAGUCUAGGAUAUUUCAAUAGUUGUGUGAGAGAAGGAGAAUAACAUGAGGAUCACCCAUGUACCUCAAGUAGGCCGAUU [Eternabot solution 16] (Eterna round: R96, puzzle: Exclusion NG 1)”: the “apparent KD of MS2 coat protein” value runs as follows: (input ligand: FMN 200 uM) 59.2 nM; under setting [1], 36.2 nM; (input ligand: none) 48 nM.
For “GGACCGAGUGUGAGGAUAUGCUGGUCCUUGGAUCAGCAGAAGGCACAUGAGGAUCACCCAUGUGGAGACGGUCC [Eli bmx4 4.33] (Eterna round: R97, puzzle: Brourd's mod of Exclusion 4)”, the “apparent KD of MS2 coat protein” value by setting is: (input ligand: FMN 200 uM) 1050 nM; (input ligand: none) 87.4 nM.
For “GGACCUCCUGAGGAUAUUGUAUCACCCGACUGAUAAGAAGGCAGAACAUGAGGAUCACCCAUGUGGGUACUCGG [Bingo-Bango-14] (Eterna round: R97, puzzle: Exclusion 6)”, the “apparent KD of MS2 coat protein” value reads like this: (input ligand: FMN 200 uM) 34.6 nM; (input ligand: none) 38.4 nM.
The corresponding values for “GGAGAGUGAGGAUAUACAUGAGGAUCACCCAUGUAUAUCAAAUAAAAUAAAUUCUCAUGUAGAAGGCGCUUUUC [Alacar 3rd Attempt] (Eterna round: R97, puzzle: Exclusion 3)” are 16.2 nM and 14.4 nM.
As to “GGAGAUCGAGGAUAUACAUGAGGAUCACCCAUGUCCGUAGACUGGGAUCGCGGCAGUGGUAGAAGGUGGAAAAU [Eternabot (L2) Solution 67] (Eterna round: R97, puzzle: Exclusion 3)”, the “apparent KD of MS2 coat protein” value reads like this: (input ligand: FMN 200 uM) 112 nM; (input ligand: none) 160 nM.
The corresponding values for “GGAGCAAGUGUCAGGAUAUCGUGGUCGAUAGAUCACGAGAAGGGACAUGAGGAUCACCCAUGUGCCUCAGCUCC [Mat - Exclusion 4 - Eli Mod - D60] (Eterna round: R97, puzzle: Brourd's mod of Exclusion 4)” are 736 nM and 214 nM.
On to “GGAGGACGAGCAGGAUAUUUUCACAUGAGGAUCACCCAUGUGUACUCAGGGUAAUCCUCCGCCGAAAAGAAGGGUUCGGAAUAA [Mat - Exclusion NG 2 - Mod of JL - D81] (Eterna round: R96, puzzle: Exclusion NG 2)”, for which the “apparent KD of MS2 coat protein” value came to 39.8 nM (input ligand: FMN 200 uM), 27.8 nM under setting [1] and 74.1 nM (input ligand: none).
The corresponding values for “GGAGGAGAGUUAGGAUAUACAAGAAGAAUGUGAGUAGAAGGAACGGAACAUGAGGAUCACCCAUGUCCCAUGUGGAGGAGGAGG [Kawasakiqro] (Eterna round: R96, puzzle: Exclusion NG 1)” are 46.2 nM, 25.3 nM and 30.9 nM.
Take “GGAGGUAUUUAGGAUAUGAUGUACGACGCAGGUUCAGAAGGGAGUACAUGAGGAUCACCCAUGUGGCCUCAUCC [Eternabot (L2) Solution 47] (Eterna round: R97, puzzle: Exclusion 6)”: the “apparent KD of MS2 coat protein” value is, setting by setting: (input ligand: FMN 200 uM) 1200 nM; (input ligand: none) 2010 nM.
In the case of “GGAUAGUGAGGAUAUCGAUGUUAGGAGGAGGAGGUAGGAGGCGAGAAGGCACAUGAGGAUCACCCAUGUAUGGU [JR_Exclu4_Sub069] (puzzle: Exclusion 4)”, the “apparent KD of MS2 coat protein” value under setting [2] came to 28.2 nM.
As for “GGAUCAUAUGUCAGGAUAUGCUGGACCUUGGUUCAGCAGAAGGGACAUGAGGAUCACCCAUGUCAUGGAGAUCC [Mat - Exclusion 4 - Eli Mod - D53] (Eterna round: R97, puzzle: Brourd's mod of Exclusion 4)”, the “apparent KD of MS2 coat protein” value by setting is: (input ligand: FMN 200 uM) 270 nM; (input ligand: none) 415 nM.
